Substitutions are numbered along the chain they refer to.
B1: anti-DLL3 trispecific protein 2E011 (protein, part only; not given: CD3 binder and albumin binder, part only)
chain, part: EVQLVESGGGLVQPGGSLTLSCVASGSTSSINAIGWYRRAPGKQRELVAGISSDGSSVYADSVKGRFTISRDNAKNSVYLQMNSLRAEDTAVYYCYYFRRVSGSSMRYWGQGTLVTVSSGGGGSGGGSGGGGSGGGSHHHHHH
B2: anti-DLL3 trispecific protein 1C010 (protein, part only; not given: CD3 binder and albumin binder, part only)
chain, part: B1 chain, part with S30R, I34M, I51V, S57K, R100T, R107S
B3: anti-DLL3 trispecific protein 3H011 (protein, part only; not given: CD3 fragment and albumin sdAb, part only)
chain, part: EVQLVESGGGLVQPGGSLTLSCAASGSSVKFLSMAWYRQAPGKKRELVAGISADGSTVYIDSVKGRFTISRDNAKNSVYLQMNSLRAEDTAVYYCYAYRWPTRYTYWGQGTLVTVSSGGGGSGGGSGGGGSGGGSHHHHHH
B4: anti-DLL3 trispecific protein 1E011 (protein, part only; not given: anti-CD3 and anti-albumin domains, part only)
chain, part: B1 chain, part with S27N, I34M, S57K, A60Y, R100T, S102R, M106Q
B5: anti-DLL3 trispecific protein 1H012 (protein, part only; not given: anti-CD3 fragment and anti-albumin sdAb, part only)
chain, part: B1 chain, part with I34M, S57K, A60V, R100T, R107P
B6: anti-DLL3 trispecific protein 4G01 (protein, part only; not given: CD3 binder and albumin binder, part only)
chain, part: B3 chain, part with K30R
B7: anti-DLL3 trispecific protein 1A011 (protein, part only; not given: anti-CD3 and anti-albumin domains, part only)
chain, part: B1 chain, part with S57K, A60I, R100T, M106Y
B8: anti-DLL3 trispecific protein 4D01 (protein, part only; not given: CD3 binder and albumin binder, part only)
chain, part: B3 chain, part with K30R, P101T, Y104R
B9: anti-DLL3 trispecific protein 4E02 (protein, part only; not given: CD3 binder and albumin binder, part only)
chain, part: B3 chain, part with S28Q, K30S, P101S
B10: anti-DLL3 trispecific protein 2E05 (protein, part only; not given: CD3 fragment and albumin sdAb, part only)
chain, part: B1 chain, part with T28P, I34Y, S57K, A60S, R100T, R107S
B11: anti-DLL3 trispecific protein 4B011 (protein, part only; not given: CD3 fragment and albumin sdAb, part only)
chain, part: B3 chain, part with K30T, P101T, Y104G
B12: anti-DLL3 trispecific protein 1F02 (protein, part only; not given: CD3 binder and albumin binder, part only)
chain, part: B1 chain, part with I34M, G35A, V48A, G55Q, S57K, V63A, R100T, R107S
B13: anti-DLL3 trispecific protein 1A05 (protein, part only; not given: CD3 fragment and albumin sdAb, part only)
chain, part: B1 chain, part with T28P, I34M, V48S, S57K, R100T, S102R, R107S
B14: anti-DLL3 trispecific protein 2A011 (protein, part only; not given: anti-CD3 and anti-albumin domains, part only)
chain, part: B1 chain, part with S57K, A60S, R100P
B15: anti-DLL3 trispecific protein 2E010 (protein, part only; not given: anti-CD3 and anti-albumin domains, part only)
chain, part: B1 chain, part with I34M, G35A, S57K, R99H, R100T
B16: anti-DLL3 trispecific protein 2C02 (protein, part only; not given: CD3 binder and albumin binder, part only)
chain, part: B1 chain, part with I34V, S57K, A60V, R100T, S102Y
B17: anti-DLL3 trispecific protein 2E01 (protein, part only; not given: anti-CD3 and anti-albumin domains, part only)
chain, part: EVQLVESGGGLVQPGGSLTLSCVASGSTSSINAMGWYRRAPFKQGELPAGISPDGTKAYADSAKVRFTISRDNAKNSVYLQMNSLRAEDTAVYYCYYFHTVCGTSMGYWGQGTLVTVSSGGGGSGGGSGGGGSGGGSHHHHHH
B18: anti-DLL3 trispecific protein 2G08 (protein, part only; not given: anti-CD3 and anti-albumin domains, part only)
chain, part: B1 chain, part with S30Y, I34M, S57K, R100T, S104Q, R107G
B19: anti-DLL3 trispecific protein 1C01 (protein, part only; not given: anti-CD3 and anti-albumin domains, part only)
chain, part: B1 chain, part with I34M, S57K, A60R, R100T, R107G
B20: anti-DLL3 trispecific protein 4B07 (protein, part only; not given: anti-CD3 fragment and anti-albumin sdAb, part only)
chain, part: B3 chain, part with K30G, P101T
B21: anti-DLL3 trispecific protein 1E09 (protein, part only; not given: CD3 fragment and albumin sdAb, part only)
chain, part: B1 chain, part with I34M, G35A, S57K, A60T, R100T, V101R
B22: anti-DLL3 trispecific protein 2H02 (protein, part only; not given: anti-CD3 and anti-albumin domains, part only)
chain, part: B1 chain, part with I34M, G35A, V48A, S57K, R99H, R100T
B23: anti-DLL3 trispecific protein 3F010 (protein, part only; not given: CD3 fragment and albumin sdAb, part only)
chain, part: B3 chain, part with G26Y, K30S, F31R, P101T, Y104N
B24: anti-DLL3 trispecific protein 1D011 (protein, part only; not given: anti-CD3 and anti-albumin domains, part only)
chain, part: B1 chain, part with I34M, G35A, G55N, S57K, R100T, S104H
B25: anti-DLL3 trispecific protein 3C04 (protein, part only; not given: anti-CD3 and anti-albumin domains, part only)
chain, part: B3 chain, part with S28H, K30S, S56P, V58D, P101D
B26: anti-DLL3 trispecific protein 4H011 (protein, part only; not given: anti-CD3 and anti-albumin domains, part only)
chain, part: B3 chain, part with K30S, F31R, A53V, V58D, P101T, Y104L
B27: anti-DLL3 trispecific protein 4D09 (protein, part only; not given: CD3 binder and albumin binder, part only)
chain, part: B3 chain, part with V58D, D61L, R99E, P101T
B28: anti-DLL3 trispecific protein 1A012 (protein, part only; not given: CD3 binder and albumin binder, part only)
chain, part: B1 chain, part with I34M, G35A, S57K, A60S, R100T, S102L
B29: anti-DLL3 trispecific protein 2D012 (protein, part only; not given: anti-CD3 fragment and anti-albumin sdAb, part only)
chain, part: B1 chain, part with S27K, I34M, S57K, A60T, R100T, V101R
B30: anti-DLL3 trispecific protein 3C03 (protein, part only; not given: anti-CD3 fragment and anti-albumin sdAb, part only)
chain, part: B3 chain, part with K30R, A53R, P101T, Y104G
B31: anti-DLL3 trispecific protein 1F011 (protein, part only; not given: anti-CD3 fragment and anti-albumin sdAb, part only)
chain, part: B1 chain, part with S57K, R100T, S102K
B32: anti-DLL3 trispecific protein 2H011 (protein, part only; not given: anti-CD3 fragment and anti-albumin domain, part only)
chain, part: B1 chain, part with S30R, I34M, S57K
B33: anti-DLL3 trispecific protein 1D010 (protein, part only; not given: anti-CD3 and anti-albumin domains, part only)
chain, part: B1 chain, part with I31N, I34M, G35A, S57K, A60T, R100T, V101R
B34: anti-DLL3 trispecific protein 4C01 (protein, part only; not given: anti-CD3 fragment and anti-albumin sdAb, part only)
chain, part: B3 chain, part with K30R, P101K
B35: anti-DLL3 trispecific protein 1B01 (protein, part only; not given: anti-CD3 fragment and anti-albumin sdAb, part only)
chain, part: B1 chain, part with S30I, I34M, V48A, S57K, Y59I
B36: anti-DLL3 trispecific protein 1D09 (protein, part only; not given: anti-CD3 and anti-albumin domains, part only)
chain, part: B1 chain, part with I34M, G35A, S57K, A60T, R100T, V101I
B37: anti-DLL3 trispecific protein 1E012 (protein, part only; not given: CD3 binder and albumin binder, part only)
chain, part: B1 chain, part with I31T, I34M, S57K, A60V, R100T, R107V
B38: anti-DLL3 trispecific protein 3D011 (protein, part only; not given: CD3 binder and albumin binder, part only)
chain, part: B3 chain, part with K30S, F31R, T57R, V58D, P101T, T105K
B39: anti-DLL3 trispecific protein 1C05 (protein, part only; not given: CD3 binder and albumin binder, part only)
chain, part: B1 chain, part with I34M, G35A, S57K, R100T, S105H
B40: anti-DLL3 trispecific protein 2H03 (protein, part only; not given: CD3 binder and albumin binder, part only)
chain, part: B1 chain, part with I34M, G35A, S57K, R100Q

biological target: biotinylated human DLL3 protein expressed as a human IgG1 fusion protein (human) (UniProt Q9NYJ7); assay: Octet BLI; biotinylated huDLL3-IgG1 fusion on streptavidin tips; single 50 nM; conditioned medium
Sequence (Q9NYJ7 other isoform, or with tags, fused parts or gaps): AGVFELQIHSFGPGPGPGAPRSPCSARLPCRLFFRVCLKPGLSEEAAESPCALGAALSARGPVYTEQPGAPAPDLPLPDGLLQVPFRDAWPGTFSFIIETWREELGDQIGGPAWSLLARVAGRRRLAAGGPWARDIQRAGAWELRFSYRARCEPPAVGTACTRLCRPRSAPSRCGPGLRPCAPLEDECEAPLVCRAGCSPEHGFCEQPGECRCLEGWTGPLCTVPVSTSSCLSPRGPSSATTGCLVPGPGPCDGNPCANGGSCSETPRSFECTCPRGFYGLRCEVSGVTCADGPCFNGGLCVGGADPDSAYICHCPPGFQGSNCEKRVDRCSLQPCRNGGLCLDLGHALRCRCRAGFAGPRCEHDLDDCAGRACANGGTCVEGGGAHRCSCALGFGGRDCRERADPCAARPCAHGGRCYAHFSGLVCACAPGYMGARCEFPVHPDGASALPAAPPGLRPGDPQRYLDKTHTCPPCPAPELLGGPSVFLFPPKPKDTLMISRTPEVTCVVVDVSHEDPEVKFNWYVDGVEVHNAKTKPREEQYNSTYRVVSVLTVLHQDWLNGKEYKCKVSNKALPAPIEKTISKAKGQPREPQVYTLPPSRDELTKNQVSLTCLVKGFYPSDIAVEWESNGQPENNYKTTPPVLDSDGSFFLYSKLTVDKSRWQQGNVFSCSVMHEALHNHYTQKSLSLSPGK

Binder | Kd [nM]
B1 | 2.4
B2 | 2.5
B3 | 2.7
B4 | 2.7
B5 | 3.5
B6 | 3.6
B7 | 3.7
B8 | 3.7
B9 | 3.8
B10 | 3.9
B11 | 3.9
B12 | 4
B13 | 4
B14 | 4
B15 | 4
B16 | 4.1
B17 | 4.1
B18 | 4.1
B19 | 4.3
B20 | 4.3

Binder | Kd [nM]
B21 | 4.4
B22 | 4.4
B23 | 4.4
B24 | 4.4
B25 | 4.5
B26 | 4.5
B27 | 4.7
B28 | 4.9
B29 | 4.9
B30 | 4.9
B31 | 5
B32 | 5
B33 | 5
B34 | 5.1
B35 | 5.2
B36 | 5.2
B37 | 5.3
B38 | 5.3
B39 | 5.3
B40 | 5.3

— patent US20200095340A1
